Source: patent US10273305B2, “Bispecific CXCR4-CD4 polypeptides with potent anti-HIV activity” (Ablynx N.V., priority 2015, dated 2019)

B1: 3F11: anti-CD4 Nanobody, SEQ ID NO: 20 (protein)
VHH: EVQLVESGGGSVQPGGSLTLSCGTSGRTFNVMGWFRQAPGKEREFVAAVRWSSTGIYYTQYADSVKSRFTISRDNAKNTVYLEMNSLKPEDTAVYYCAADTYNSNPARWDGYDFRGQGTQVTVSS
modifications: Nanobody Sequence

Tests used:
[1] = tested on: dual-tropic R5/X4 HIV-1 HE; assay: TZM-bl luciferase assay, HE; type: cell-based
R5 HIV-1 BaL virus = assay: TZM-bl luciferase assay, BaL; type: cell-based; conditions: read-out: IC50 R5 HIV-1 BaL virus in TZM-bl cells
R5 DJ259 = assay: TZM-bl luciferase assay, DJ259; type: cell-based, HIV-1; conditions: read-out: IC50 TZM-bl R5 DJ259 n = 2
X4 HIV-1 NL4.3 WT = assay: TZM-bl luciferase assay, NL4.3 WT; type: cell-based
[2] = tested on: dual-tropic R5/X4 HIV-2 ROD; assay: TZM-bl luciferase assay, HIV-2 ROD; type: cell-based
R5 SM145 = assay: TZM-bl luciferase assay, SM145; type: cell-based, HIV-1; conditions: read-out: IC50 TZM-bl R5 SM145 n = 2
[3] = tested on: dual-tropic R5/X4 HIV-1 HE; assay: HIV-1 HE infection of PBMCs, p24; type: cell-based
CXCR4 [4] = molecular target: T1, CXCR4 (Homo sapiens, UniProt P61073); assay: Inhibition of SDF-1 induced Ca2+ signaling in U87.CD4.CXCR4 cells (FLIPR); type: cell-based
CXCR4 [5] = molecular target: T1, CXCR4; assay: Inhibition of SDF-1 mediated chemotaxis; type: cell-based; conditions: average of 3
Method: As chemoattractant a concentration of 750 pM SDF-1α (R&D Systems) was used on 100,000 cells/well for the Jurkat cell line, and 500,000 cells/well for the MOLM-13 cell line. SDF-1α and serially diluted Nanobody constructs were added to the bottom of a small chemotaxis plate (Neuprobe 106-5) in a total volume of 29 μl. A chemotaxis filter membrane (ChemoTx® Disposibla, pore size 5 μm) was placed on top of the wells, ensuring that the membrane was in contact with the solution in the wells below. A Nanobody dilution (10 μl at 5× the serially diluted final concentration as below the membrane in each well) was added on top of the membrane, followed by 40 μl of cell suspension. The plates were incubated for 3 hours at 37° C. in a humidified incubator (5% CO2). After incubation, the filters were carefully removed and the cells in the well below were resuspended in the existing solution. The complete cell suspension was transferred to the corresponding wells of white polystyrene Costar plates. After this, 30 μl of Cell Titer Glo reagent (Promega G7571) was added to each well, followed by a 10 minute incubation, with shaking in the dark. Luminescence was measured (1 sec/well) using an Envision 2103 Multilabel Reader with emission filter 700 (Perkin Elmer). […]

CD4 [6] = molecular target: T2, CD4 (Homo sapiens, UniProt P01730); assay: FACS binding of CD4 Nanobody 3F11 to human cells; conditions: CD8+ T cells isolated from human PBMCs
Method: The EC50 values results are depicted in Table 2.4. […] To confirm the specificity of the anti-CD4 Nanobody, binding of 03F11 was also assessed to cytotoxic CD8^+ T cells isolated from human PBMCs using the CD8 T Cell Isolation Kit (Miltenyi Biotech, Cat. 130-096-495), resulting in 94% purity of CD8^+ cells.

[7] = molecular target: interaction of CD4 with the viral gp120 protein (Homo sapiens, UniProt P01730); assay: ELISA-based competition of CD4-gp120 interaction; type: binding; conditions: 500 nM Nanobody; gp120 HIV-1 IIIB
Method: Besides its role on T-cells, CD4 also serves as primary receptor for HIV entry. Therefore purified CD4 Nanobodies were analysed for the capacity to block the interaction of CD4 with the viral gp120 protein. Monovalent His-tagged Nanobodies were purified from periplasmic extracts by affinity and desalting chromatography and used in an ELISA-based competition setup. In short, 1 μg/ml of gp120 HIV-1 IIIB (Immunodiagnostic) was captured by 20 μg/ml of sheep anti-gp120 antibody D7324 (Aalto Bio Reagents) previously coated in 96 well Maxisorp microtiter plates (Nunc) and blocked with 1% casein in PBS. In parallel, 0.5 μg/ml of biotinylated CD4 was incubated with 500 nM of the different purified Nanobodies in 100 μl 0.1% Casein/PBS. After 1 hour, the biotinylated CD4-Nanobody pre-mixes were incubated 1 hour with the captured gp120. Bound biotinylated CD4 was detected using HRP-conjugated Extravidin (Sigma E2886). A blocking mouse anti-CD4 IgG2a antibody (Diaclone, clone B-A1 cat#854.030.000) was used as positive control. Blocking activity was determined as loss of O.D. signal, as compared to wells where no Nanobody was added.

cynomolgus CD4 = cynomolgus CD4 (Macaca fascicularis, UniProt P79185); assay: Binding of 3F11 to cynomolgus CD4+ HSC-F T cells, flow cytometry; conditions: HSC-F T cell line
CXCR4 [8] = molecular target: T1, CXCR4; assay: CXCL12-AF647 binding inhibition on SupT1 cells by flow cytometry; conditions: T-cells (SUPT-1)
CD4 [9] = molecular target: T2, CD4; assay: Flow cytometry binding of purified CD4 Nanobodies to Jurkat and THP-1 cells; conditions: 100 nM Nanobody
Method: Murine Ba/F3 myeloid cells were used as negative control cells. Purified Nanobodies (100 nM) were allowed to bind to 10^5 cells for 30 minutes at 4° C. in a final volume of 100 μl of 10% FBS (Invitrogen, Cat 10270-106) in PBS (Invitrogen #14190). Bound Nanobodies were detected with mouse anti-myc antibody (Serotec, Cat#MCA2200) followed by goat anti-mouse-PE antibody (Jackson #115-115-164). Dead cells percentage population was determined by staining the cells with TOPRO3 (Molecular probes T3605). Using a BD FACS Array Bioanalyzer system, a PE filter 585/42 and a Topro filter 661/16, twenty thousand events were acquired. TOPRO3+ cells were excluded, and the mean channel fluorescence (MCF) was calculated. Expression of CD4 in Jurkat and THP-1 cells was confirmed by using 10 μg/ml of an anti-CD4 monoclonal antibody (Diaclone, clone B-A1 cat#854.030.000). Staining of the cells with anti-myc and/or the goat anti mouse-PE antibodies antibody was performed as negative controls.

HUT-78/HIV-1 NL4.3 = assay: HIV-1-mediated cell-cell fusion, HUT-78/NL4.3 with SupT1 cells; conditions: read-out: IC50 cell-cell fusion
HIV-1 X4 NL4.3 strain = assay: HIV-1 NL4.3 infection of PHA-stimulated PBMCs, p24 Ag ELISA; type: cell-based

T1 sequence (P61073 whole entry): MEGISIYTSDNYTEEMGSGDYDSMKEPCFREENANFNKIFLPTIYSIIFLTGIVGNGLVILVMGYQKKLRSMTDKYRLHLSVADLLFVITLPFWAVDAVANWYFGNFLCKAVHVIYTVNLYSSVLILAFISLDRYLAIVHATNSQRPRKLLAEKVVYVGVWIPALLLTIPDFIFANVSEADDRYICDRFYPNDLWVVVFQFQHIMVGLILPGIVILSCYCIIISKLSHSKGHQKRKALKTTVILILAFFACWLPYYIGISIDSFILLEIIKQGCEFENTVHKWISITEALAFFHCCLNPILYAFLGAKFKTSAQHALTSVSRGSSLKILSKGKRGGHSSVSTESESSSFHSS
Sequence of cynomolgus CD4 (P79185 26-458): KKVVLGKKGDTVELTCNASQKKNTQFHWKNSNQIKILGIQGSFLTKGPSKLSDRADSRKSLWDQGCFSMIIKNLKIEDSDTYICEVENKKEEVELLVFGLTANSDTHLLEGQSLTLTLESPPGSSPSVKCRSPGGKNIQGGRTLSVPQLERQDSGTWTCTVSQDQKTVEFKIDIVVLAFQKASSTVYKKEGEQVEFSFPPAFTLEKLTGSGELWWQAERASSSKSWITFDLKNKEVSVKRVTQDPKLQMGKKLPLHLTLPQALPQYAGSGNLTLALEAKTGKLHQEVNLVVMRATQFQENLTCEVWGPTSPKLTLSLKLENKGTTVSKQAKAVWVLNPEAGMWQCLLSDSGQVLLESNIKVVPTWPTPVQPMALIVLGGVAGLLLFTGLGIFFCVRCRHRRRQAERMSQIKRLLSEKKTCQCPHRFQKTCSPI

Row | Molecule | activity against R5/X4 HIV-1 HE in TZM-bl cells [1] | IC50 (R5 HIV-1 BaL virus) [µM] | IC50 (R5 DJ259) [µM] | IC50 X4 HIV-1 NL4.3 in TZM-bl cells (X4 HIV-1 NL4.3 WT) | activity against R5/X4 HIV-2 ROD in TZM-bl cells [2] | IC50 (R5 SM145) [µM] | IC50 dual-tropic R5/X4 HIV-1 HE in PBMCs [3] | IC50 of CXCL-12-induced Ca2+-signaling inhibition (CXCR4 [4]) | Inhibition of SDF-1a-mediated chemotaxis IC50 MOLM-13 cells (CXCR4 [5]) | binding to cytotoxic CD8+ T cells (CD4 [6]) | blocking of in vitro interaction of CD4 with gp120 [7] | binding to cynomolgus CD4 (cynomolgus CD4) | IC50 of blocking CXCL12AF647 binding to CXCR4 (CXCR4 [8]) | binding to CD4 expressed on a cell surface (CD4 [9]) | IC50 (HUT-78/HIV-1 NL4.3) [µM] | IC50 HIV-1 NL4.3 in PBMC (HIV-1 X4 NL4.3 strain)
1 | maraviroc [AMD14031] | did not block | 4.2 | 7.54 | did not block | did not block | 2.82 | never showed any significant anti-HIV-1 HE activity |  |  |  |  |  |  |  |  | 
2 | B1 |  |  |  |  |  |  | not active | no CXCL-12-induced Ca^2+-signaling inhibition | did not have any effect on SDF-1 function | No binding | block | cross-reactive to cynomolgus CD4 | did not interfere | highest binding signal on THP-1 cells | 2.7 | weakly active
